# Test results taken from PMC10304930.
# Experiments:
# [1] = target: authentic main protease (M^pro) from SARS-CoV, without tag (SARS-CoV) (UniProt P0C6X7)
# [2] = target: authentic main protease (M^pro) from SARS-CoV, without tag (SARS-CoV) (UniProt P0C6X7); assay: SEC; […]; 40 mM Tris-HCl, 100 mM NaCl, 1 mM DTT, pH 8.0; 0.5 mL/min; […]
# [3] = target: tagged main protease from SARS-CoV with 34 extra amino acids at the N-terminus (SARS-CoV) (UniProt P0C6X7)
substance,measurement,setting,value
"authentic main protease (M^pro) from SARS-CoV, without tag (from UniProt P0C6X7) (enzyme)","kcat/Km, FRET-based cleavage assay (Dabcyl/Edans peptide substrate)",[1],2790 M⁻¹ s⁻¹
same,stoichiometry N,[2],2
tagged main protease from SARS-CoV with 34 extra amino acids at the N-terminus (from UniProt P0C6X7) (enzyme),"kcat/Km, FRET-based cleavage assay (Dabcyl/Edans peptide substrate)",[3],17 M⁻¹ s⁻¹
